# Assay results published in IntAct's records for PubMed 31474574.
# B1: Splicing factor 3B subunit 1 (Homo sapiens), O75533 (parent)
# chain: MAKIAKTHEDIEAQIREIQGKKAALDEAQGVGLDSTGYYDQEIYGGSDSRFAGYVTSIAATELEDDDDDYSSSTSLLGQKKPGYHAPVALLNDIPQSTEQYDPFAEHRPPKIADREDEYKKHRRTMIISPERLDPFADGGKTPDPKMNARTYMDVMREQHLTKEEREIRQQLAEKAKAGELKVVNGAAASQPPSKRKRRWDQTADQTPGATPKKLSSWDQAETPGHTPSLRWDETPGRAKGSETPGATPGSKIWDPTPSHTPAGAATPGRGDTPGHATPGHGGATSSARKNRWDETPKTERDTPGHGSGWAETPRTDRGGDSIGETPTPGASKRKSRWDETPASQMGGSTPVLTPGKTPIGTPAMNMATPTPGHIMSMTPEQLQAWRWEREIDERNRPLSDEELDAMFPEGYKVLPPPAGYVPIRTPARKLTATPTPLGGMTGFHMQTEDRTMKSVNDQPSGNLPFLKPDDIQYFDKLLVDVDESTLSPEEQKERKIMKLLLKIKNGTPPMRKAALRQITDKAREFGAGPLFNQILPLLMSPTLEDQERHLLVKVIDRILYKLDDLVRPYVHKILVVIEPLLIDEDYYARVEGREIISNLAKAAGLATMISTMRPDIDNMDEYVRNTTARAFAVVASALGIPSLLPFLKAVCKSKKSWQARHTGIKIVQQIAILMGCAILPHLRSLVEIIEHGLVDEQQKVRTISALAIAALAEAATPYGIESFDSVLKPLWKGIRQHRGKGLAAFLKAIGYLIPLMDAEYANYYTREVMLILIREFQSPDEEMKKIVLKVVKQCCGTDGVEANYIKTEILPPFFKHFWQHRMALDRRNYRQLVDTTVELANKVGAAEIISRIVDDLKDEAEQYRKMVMETIEKIMGNLGAADIDHKLEEQLIDGILYAFQEQTTEDSVMLNGFGTVVNALGKRVKPYLPQICGTVLWRLNNKSAKVRQQAADLISRTAVVMKTCQEEKLMGHLGVVLYEYLGEEYPEVLGSILGALKAIVNVIGMHKMTPPIKDLLPRLTPILKNRHEKVQENCIDLVGRIADRGAEYVSAREWMRICFELLELLKAHKKAIRRATVNTFGYIAKAIGPHDVLATLLNNLKVQERQNRVCTTVAIAIVAETCSPFTVLPALMNEYRVPELNVQNGVLKSLSFLFEYIGEMGKDYIYAVTPLLEDALMDRDLVHRQTASAVVQHMSLGVYGFGCEDSLNHLLNYVWPNVFETSPHVIQAVMGALEGLRVAIGPCRMLQYCLQGLFHPARKVRDVYWKIYNSIYIGSQDALIAHYPRIYNDDKNTYIRYELDYIL
# partner: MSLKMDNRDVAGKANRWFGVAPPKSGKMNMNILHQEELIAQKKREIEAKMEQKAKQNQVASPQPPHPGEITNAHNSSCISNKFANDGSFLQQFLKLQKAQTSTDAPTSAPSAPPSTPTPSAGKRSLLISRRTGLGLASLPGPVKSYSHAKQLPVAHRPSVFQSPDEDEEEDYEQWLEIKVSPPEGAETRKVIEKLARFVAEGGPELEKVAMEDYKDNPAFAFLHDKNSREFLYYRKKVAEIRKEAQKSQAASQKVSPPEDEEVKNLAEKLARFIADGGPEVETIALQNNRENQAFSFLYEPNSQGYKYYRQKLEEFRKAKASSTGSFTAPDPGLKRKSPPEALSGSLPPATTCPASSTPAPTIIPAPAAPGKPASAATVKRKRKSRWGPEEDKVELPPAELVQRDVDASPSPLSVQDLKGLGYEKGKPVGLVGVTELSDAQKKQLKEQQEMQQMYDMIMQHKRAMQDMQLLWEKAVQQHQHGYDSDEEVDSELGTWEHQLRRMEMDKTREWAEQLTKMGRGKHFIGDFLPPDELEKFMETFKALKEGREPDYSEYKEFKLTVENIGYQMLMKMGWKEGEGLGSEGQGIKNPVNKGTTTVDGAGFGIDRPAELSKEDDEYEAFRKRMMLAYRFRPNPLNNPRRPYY
# B2: SURP and G-patch domain-containing protein 1 (Homo sapiens), Q8IWZ8 (parent)
# chain: B1 partner
# Variants of: B1
# Conditions: with sugp1_human SUGP1, Q8IWZ8
row,Variant,effect of a mutation on the interaction
1,E622D,disrupting interaction strength
2,H662Q,disrupting interaction strength

# More lines, now with the values ahead:
row,effect of a mutation on the interaction,Variant
1,disrupting interaction strength,R625C
2,disrupting interaction strength,K700E
3,decreasing interaction strength,K666N

# Variants of: B1
# Conditions: with sugp1_human SUGP1, Q8IWZ8
# Remark: another data set of the same source
row,effect of a mutation on the interaction,Variant
1,decreasing interaction strength,K700E

# Variants of: B2
# Conditions: with U2AF2, P26368
# Chain of U2AF2, P26368 (P26368 whole entry): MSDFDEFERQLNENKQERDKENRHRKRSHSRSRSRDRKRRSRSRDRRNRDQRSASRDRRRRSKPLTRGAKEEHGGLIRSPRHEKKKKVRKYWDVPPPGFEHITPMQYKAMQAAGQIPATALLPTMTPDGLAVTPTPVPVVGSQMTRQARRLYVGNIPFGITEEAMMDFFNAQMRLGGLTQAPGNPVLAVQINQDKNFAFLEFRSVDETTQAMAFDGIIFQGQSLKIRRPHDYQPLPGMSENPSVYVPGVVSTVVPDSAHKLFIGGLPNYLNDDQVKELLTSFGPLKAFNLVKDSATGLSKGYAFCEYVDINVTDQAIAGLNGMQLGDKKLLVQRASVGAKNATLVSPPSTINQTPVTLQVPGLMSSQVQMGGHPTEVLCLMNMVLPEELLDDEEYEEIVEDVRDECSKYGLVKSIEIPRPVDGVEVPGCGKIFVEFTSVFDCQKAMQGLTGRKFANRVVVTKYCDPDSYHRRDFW
row,effect of a mutation on the interaction,Variant
1,disrupting interaction strength,W387A
